{"source": "patent US12616751B2", "about": "“Photosensitizing antibody-fluorophore conjugates” (The USA, as represented by the Secretary, Department of …, priority 2010, dated 2026)", "key": {"A431 cells [1]": {"system": "A431 cells", "assay_type": "cell-based", "experimental": "(§1) EGFR-expressing A431 cells were used as the target HER1+ cells. […] Cells were grown in RPMI 1640 supplemented with 10% fetal bovine serum and 1% penicillin/streptomycin in tissue culture flasks in a humidified incubator at 37° C. in an atmosphere of 95% air and 5% carbon dioxide. A431 or Balb/3T3/DsRed cells were seeded on cover glass-bottomed dishes and incubated for 24 hours. Pan-IR700 was added to the culture medium at 10 μg/mL and incubated either for 1 hour on ice or 6 hours at 37° C., then cells were washed with PBS. Culture medium was replaced with phenol red-free medium after washing with phosphate buffered saline (PBS).\nPIT was performed as described in Examples 2 and 3."}, "A431 cells [2]": {"system": "A431 cells", "test": "Fluorescence microscopy of Pan-IR700 in A431 cells", "assay_type": "cell-based", "conditions": "after 24 h incubation", "experimental": "as §1\nFluorescence microscopy was performed as described in Example 2 to detect the antigen-specific localization of IR700.\nReagents. […] The protein concentrations were determined with Coomassie Plus protein assay kit (Pierce Biotechnology) by measuring light absorption at 595 nm (8453 Value System; Agilent Technologies). […] Quenching efficiency (QE) for a particular conjugation is defined as the fluorescence intensity with SDS divided by fluorescence intensity without SDS. […] Fluorescence lifetime measurements. […] Lifetime values and lifetime mapping were calculated to fit fluorescence temporal point-spread functions (TPSFs) as single-exponential models with the Fit TPSF tool. […] Power densities were measured with an optical power meter (PM 100, Thorlabs). […]"}, "A431 tumor": {"system": "A431 tumor", "test": "In vivo fluorescence imaging of Pan-IR700 in A431 tumors", "design": "species or system mice", "experimental": "(§2) To confirm antigen specific localization of Pan-IR700, 1×10^6 of 3T3/HER2 cells (HER1 negative) were injected subcutaneously in the right dorsum at the same time of A431 cells injection. […] Regions of interest (ROI) for both tumor and background were placed for equivalent sized areas containing the same number of pixels. Tumor to background ratio (TBR) was calculated using the following formula: TBR=((mean tumor intensity)−(mean background intensity))/((mean non-tumor intensity)−(mean background intensity))."}, "3T3/HER2 tumor": {"system": "3T3/HER2 tumor", "test": "In vivo fluorescence imaging of Pan-IR700 in HER1 negative tumor", "design": "species or system mice", "conditions": "mouse, listed as Pan-1R700", "experimental": "as §2"}}, "note": "Entries after “also recorded” stand apart in the source; their conditions may differ.", "data": [{"substance": "Pan-IR700: Panitumumab (anti-human EGFR IgG2 MAb) conjugated to IR700; about 3 to 4 IR700 per antibody", "values": [{"measurement": "cytotoxicity without excitation light", "setting": "A431 cells [1]", "result": "no significant cytotoxicity"}, {"measurement": "cell death after irradiation", "setting": "A431 cells [1]; 0.5 to 2 J cm^−2", "result": "rapid cell death in a dose-dependent manner"}, {"measurement": "cell killing by PIT (microscopy)", "setting": "A431 cells [1]; FIG. 8", "result": "specifically killed"}, {"measurement": "target-specific phototoxicity in co-culture", "setting": "A431 cells [1]; co-cultured with Balb/3T3/DsRed (HER1 negative) cells", "result": "Target-specific phototoxicity was also confirmed"}, {"measurement": "cell damage following exposure to NIR light", "setting": "A431 cells [2]", "result": "immediate damage was induced in the cell membranes and lysosomes"}, {"measurement": "fluorescence intensity of tumor, 300 μg versus 50 μg injection", "setting": "A431 tumor; 1 day after injection", "result": "more than 3 times"}, {"measurement": "TBR, 300 μg versus 50 μg injection", "setting": "A431 tumor; mouse, in vivo", "result": "lower"}, {"measurement": "fluorescence intensity in tumor over time", "setting": "A431 tumor; mouse, in vivo", "result": "decreased gradually over days"}, {"measurement": "other localization of IR700 (biodistribution)", "setting": "A431 tumor; mouse, in vivo", "result": "no other specific localization of IR700 except for bladder accumulation on day 1"}, {"measurement": "tumor localization (in vivo fluorescence imaging)", "setting": "A431 tumor; mouse, in vivo", "result": "localized to the A431 tumor"}, {"measurement": "fluorescence of HER1 negative tumor", "setting": "3T3/HER2 tumor", "result": "the same as that of background; also recorded: did not show detectable fluorescence"}]}]}
